We go through six molecules from publication PMC12227652 (Nature Communications, 2025).

First the molecules themselves.
B1: MBP-TRAK1_(416-446,561-623) (domain or fragment, human, UniProt Q9UPV9 416-446, looked up)
chain: RSLTPSPMNIPGSNQSSAMNSLLSSCVSTPRGMSFSSRSYLPEKLQIVKPLEGSATLHHWQQLAQPHLGGILDPRPGVVTKGFRTLDVDLDEVY
B2: MBP-TRAK1_(416-446,561-623) L597D (domain or fragment, human, UniProt Q9UPV9 416-446, looked up)
chain: B1 chain with L68D
B3: MBP-TRAK1_(416-446,561-623) W589D (domain or fragment, human, UniProt Q9UPV9 416-446, looked up)
chain: B1 chain with W60D
B4: TRAK1_(569-623) (domain or fragment, human, UniProt Q9UPV9 569-623, looked up)
chain: YLPEKLQIVKPLEGSATLHHWQQLAQPHLGGILDPRPGVVTKGFRTLDVDLDEVY
B5: MIRO1_(1-591), full-length cytosolic human MIRO1 (domain or fragment, UniProt Q8IXI2 1-591, looked up)
chain: MKKDVRILLVGEPRVGKTSLIMSLVSEEFPEEVPPRAEEITIPADVTPERVPTHIVDYSEAEQSDEQLHQEISQANVICIVYAVNNKHSIDKVTSRWIPLINERTDKDSRLPLILVGNKSDLVEYSSMETILPIMNQYTEIETCVECSAKNLKNISELFYYAQKAVLHPTGPLYCPEEKEMKPACIKALTRIFKISDQDNDGTLNDAELNFFQRICFNTPLAPQALEDVKNVVRKHISDGVADSGLTLKGFLFLHTLFIQRGRHETTWTVLRRFGYDDDLDLTPEYLFPLLKIPPDCTTELNHHAYLFLQSTFDKHDLDRDCALSPDELKDLFKVFPYIPWGPDVNNTVCTNERGWITYQGFLSQWTLTTYLDVQRCLEYLGYLGYSILTEQESQASAVTVTRDKKIDLQKKQTQRNVFRCNVIGVKNCGKSGVLQALLGRNLMRQKKIREDHKSYYAINTVYVYGQEKYLLLHDISESEFLTEAEIICDVVCLVYDVSNPKSFEYCARIFKQHFMDSRIPCLIVAAKSDLHEVKQEYSISPTDFCRKHKMPPPQAFTCNTADAPSKDIFVKLTTMAMYPHVTQADLKSST

Positions count from the first letter of the chain named. In names and notes the source's numbering stands. Like-named read-outs stand apart in the source and are kept apart here.

Data set [1] addresses MIRO1_(177-591) (human, UniProt Q8IXI2 177-591). Kind of data set: ITC. A general note: Isothermal titration calorimetry measures the heat released or taken up as one component is titrated into another.
Data set [2] has as its target B5. The data set can be described thus: pull-down.
Data set [3] concerns the target B5. The data set can be described thus: pull-down. The source holds these as a separate data set.
Data set [4] concerns the molecule itself. Kind of data set: cryo-EM structure.
Data set [5] deals with the molecule itself. The data set can be described thus: mass photometry.

For the molecule RSLTPSPMNIPGSNQS (peptide, UniProt Q9UPV9 416-431, looked up) [MBP-TRAK1_(416-431)], in data set [1], the Kd (commonly the constant that tells how readily two partners part at equilibrium) was 10.9 to 15.9 µM and the stoichiometry N (commonly a count of units in the complex or per binding partner) was 1.

B1: the binding result in data set [2] was “binds”.

Consider B2, for which the binding result in data set [3] is on record as “binds”.

Turning to B3, the binding result in data set [3] is given as “binds”.

B4: the binding result in data set [4] is recorded as “binds”.

Take B5: the “stoichiometry N” value in data set [5] stood at 2.
